Experimental data published in paper PMC4817942.

Assays:
[1] = target: human HER2 ECD-Fc recombinant (human) (UniProt P04626); assay: SPR; BIAcore 3000; human HER2 ECD-Fc amine-coupled on a CM5 chip to 200 RU; analyte FS102 (50 µg/ml) at 20 µl/minute; HBS-P buffer; apparent KD
FcγRIIB (CD32B) = FcγRIIB (CD32B) (UniProt P31994); assay: SPR; Biacore analysis; who was immobilised, buffer and temperature not given for this experiment
FcγRIII (CD16A) = FcγRIII (CD16A) (UniProt P08637); assay: as above
FcγRI (CD64) = FcγRI (CD64) (UniProt P12314); assay: as above
FcγRIIA (CD32A) = FcγRIIA (CD32A) (UniProt P12318); assay: as above
[2] = target: neonatal Fc receptor (FcRn) (UniProt P55899); assay: SPR; Biacore analysis; FcRn data collected at pH6; who was immobilised not told
[3] = target: HER2 on the cell surface (human (endogenous in SK-BR-3, HCC1954 and BT474)) (UniProt P04626); assay: flow cytometry on cells; cells with 0.1-2,000 nmol/l Fcab for 1 hour at 4 °C in DPBS with 2% FBS; detected by anti-human IgG-phycoerythrin
[4] = target: HER2 on the cell surface (human (endogenous in SK-BR-3, HCC1954 and BT474)) (UniProt P04626)

FcγRIIB (CD32B), sequence (P31994 43-310): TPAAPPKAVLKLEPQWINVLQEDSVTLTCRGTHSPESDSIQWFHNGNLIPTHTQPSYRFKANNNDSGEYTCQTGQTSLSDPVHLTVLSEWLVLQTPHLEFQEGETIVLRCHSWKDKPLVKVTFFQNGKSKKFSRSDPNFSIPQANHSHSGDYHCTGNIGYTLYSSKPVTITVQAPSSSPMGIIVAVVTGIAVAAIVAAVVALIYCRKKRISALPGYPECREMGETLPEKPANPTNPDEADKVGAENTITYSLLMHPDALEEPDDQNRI
FcγRIII (CD16A), sequence (P08637 17-254): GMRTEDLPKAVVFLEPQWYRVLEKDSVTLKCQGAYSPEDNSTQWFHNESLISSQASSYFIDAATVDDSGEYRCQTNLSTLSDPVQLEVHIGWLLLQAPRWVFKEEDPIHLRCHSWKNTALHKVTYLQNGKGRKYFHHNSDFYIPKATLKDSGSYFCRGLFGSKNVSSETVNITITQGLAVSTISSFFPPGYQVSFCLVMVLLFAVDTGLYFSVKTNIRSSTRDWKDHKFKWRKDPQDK
FcγRI (CD64), sequence (P12314 16-374): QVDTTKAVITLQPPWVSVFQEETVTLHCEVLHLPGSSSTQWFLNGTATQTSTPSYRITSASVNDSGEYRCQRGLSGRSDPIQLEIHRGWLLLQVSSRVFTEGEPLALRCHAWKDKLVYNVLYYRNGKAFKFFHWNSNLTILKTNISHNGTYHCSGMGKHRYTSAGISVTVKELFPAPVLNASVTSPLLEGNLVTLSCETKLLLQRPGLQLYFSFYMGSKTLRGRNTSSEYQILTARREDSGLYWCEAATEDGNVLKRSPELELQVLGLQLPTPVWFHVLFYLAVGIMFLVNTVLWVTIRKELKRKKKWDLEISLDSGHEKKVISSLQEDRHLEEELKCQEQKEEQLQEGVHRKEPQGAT
FcγRIIA (CD32A), sequence (P12318 34-317): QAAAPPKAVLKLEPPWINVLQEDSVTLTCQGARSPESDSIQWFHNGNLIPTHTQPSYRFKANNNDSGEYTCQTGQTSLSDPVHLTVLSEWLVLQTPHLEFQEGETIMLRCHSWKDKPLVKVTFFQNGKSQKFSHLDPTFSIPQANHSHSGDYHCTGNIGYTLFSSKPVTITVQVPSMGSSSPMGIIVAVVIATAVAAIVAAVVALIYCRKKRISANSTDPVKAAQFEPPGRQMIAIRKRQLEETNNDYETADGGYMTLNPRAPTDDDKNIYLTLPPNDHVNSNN
neonatal Fc receptor (FcRn), sequence (P55899 whole entry, looked up, tested part not stated): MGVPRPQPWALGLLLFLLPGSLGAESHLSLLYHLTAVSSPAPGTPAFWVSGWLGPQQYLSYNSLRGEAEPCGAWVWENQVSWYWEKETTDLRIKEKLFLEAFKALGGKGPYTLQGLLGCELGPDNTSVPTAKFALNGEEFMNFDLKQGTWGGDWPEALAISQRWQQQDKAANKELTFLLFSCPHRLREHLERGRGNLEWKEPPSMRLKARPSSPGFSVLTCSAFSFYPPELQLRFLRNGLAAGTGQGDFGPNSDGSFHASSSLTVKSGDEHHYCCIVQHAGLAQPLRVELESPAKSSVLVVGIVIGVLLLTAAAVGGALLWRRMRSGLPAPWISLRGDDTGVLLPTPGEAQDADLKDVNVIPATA

Kd [1] [nM]	Kd (FcγRIIB (CD32B)) [nM]	Kd (FcγRIII (CD16A)) [nM]	Kd (FcγRI (CD64)) [nM]	Kd (FcγRIIA (CD32A)) [nM]	Kd [2] [nM]	EC50 [3] [nM]	reduction of HCC1954 cell number after 5 days of incubation (proliferation assay) [4] [%]	reduction of SK-BR-3 cell number after 5 days of incubation (proliferation assay) [4] [%]	Substance
0.8	6400	560	19	472	45	3.3	47	39	FS102 (designed binder)
–	5000	660	15	250	20 to 60	–	–	–	IgG1 (antibody)
–	–	–	40	–	–	–	–	–	Trastuzumab (antibody)
–	6200	500	27	1000	–	–	–	–	WT Fcab (unmodified constant region of human IgG1) (domain or fragment)
